Read-outs that look alike come from different tables or passages of the source.

The chains are these.
T1: PTRAMP–CSS heterodimer (disulfide-linked PfPTRAMP 42–309 and PfCSS 20–290) (P. falciparum)
T1 chain 1: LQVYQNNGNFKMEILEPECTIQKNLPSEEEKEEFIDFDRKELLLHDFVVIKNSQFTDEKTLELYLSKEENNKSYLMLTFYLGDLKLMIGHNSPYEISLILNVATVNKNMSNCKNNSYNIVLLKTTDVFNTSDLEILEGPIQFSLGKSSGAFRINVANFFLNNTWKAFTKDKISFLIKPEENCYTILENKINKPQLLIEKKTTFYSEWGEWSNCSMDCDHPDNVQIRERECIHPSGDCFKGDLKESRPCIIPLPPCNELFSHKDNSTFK
T1 chain 2: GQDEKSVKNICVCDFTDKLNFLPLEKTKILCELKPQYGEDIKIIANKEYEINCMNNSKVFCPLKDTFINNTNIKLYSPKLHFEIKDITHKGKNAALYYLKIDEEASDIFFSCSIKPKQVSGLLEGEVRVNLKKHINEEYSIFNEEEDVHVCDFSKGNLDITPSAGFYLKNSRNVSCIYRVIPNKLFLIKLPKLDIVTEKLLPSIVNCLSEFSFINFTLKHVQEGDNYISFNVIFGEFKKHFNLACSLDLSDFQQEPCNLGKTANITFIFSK

B1: anti-PfPTRAMP nanobody H10 (VHH)
VHH: QVQLQESGGGLVQPGGSLRLSCAASGFTFDNYWMYWVRQAPGKGLEWVSAINTVGSHTYYADSVKGRFTISRDNAKNTLYLQMNSLKSEDTAVYYCAKGPWGFGTSGWGEMDYWGKGTQVTVSS
B2: anti-PfCSS nanobody C1 (VHH)
VHH: QVQLQESGGGLVQAGGSLRLSCAASGRSFSSYAMGWFSQAPGKEREFVAAISWNGGSTYYADSVKGRFTISRNNAKNTVYLQMNSLKPEDTAVYYCAATEPEIYISTMAEGYDYWGQGTQVTVSS
B3: H2 nanobody (anti-PfCSS, non-inhibitory) (VHH)
VHH: QVQLQESGGGLVQPGGSLRLSCAASGSIFSTNAMGWYRQAPGKQREQVATITSGSSTNYADSVKGRFTISRDNAKNTVYLQMNSLKPEDTAVYYCNAAGATIDLADFGSWGQGTQVTVSS
B4: PfCSS (residues 20 to 290) (domain or fragment)
chain: T1 chain 2
modifications: N-linked glycan on Asn88 (seen in the crystal structure)
B5: anti-PfCSS nanobody G5 (VHH)
VHH: QVQLQESGGGLVQAGGSLRLSCVASGRTFSSYGMGWFRQAPGKEREFVSAISSDAASRHYANSVKGRFTISRDNAKNTVTLQMSSLTPEDTAVYYCAAVHAYYSNYDGHYDYWGQGTQVTVSS
B6: anti-PfCSS nanobody F1 (VHH)
VHH: QVQLQESGGGLVQAGGPLRLSCVASGRTFSLHLMGWFRQAPGKEREFVAAISGSGGSTYYADSVKGRFTISRDNAKNTVYLQMNSLKPEDTAVYYCAADLENYMSTMLDGYNYWGQGTQVTVSS
B7: anti-PfCSS nanobody C10 (VHH)
VHH: QVQLQESGGGLVQAGGSLRLSCVASGRTFSNDAMGWFRQAPGKEREFVAAATRNGLGTGYADSVKGRFTISRDNAKNTVYLQMNSLKPEDTAVYYCAAASDAYYSNQRAAYDYWGQGTQVTVSS
B8: anti-PfPTRAMP nanobody H8 (VHH)
VHH: QVQLQESGGGLVQPGGSLRLSCAASGFTFSSYWMYWVRQAPGKGLEWVSAINTGGGSTAYADSVKGRFTISRDNAKNTLYLQMNSLKSDDTAVYYCVKARGSSWSDRVFDYWGQGTQVTVSS
B9: anti-PfCSS nanobody B6 (VHH)
VHH: QVQLQESGGGLVQAGGSLRLSCAASGRTFSRYAMGWFRQAPGKEREFVAAISWSGGSTTYADSVKGRFTISRDNAKNTVYLQMNSLKPEDTAVYYCAAGDFIIGNMASEYEYWGQGTQVTVSS
B10: anti-PfCSS nanobody E12 (VHH)
VHH: QVQLQESGGGLVQAGGSLRLSCVASTRTFGNYAMAWFRQAPGKEREFVTTISASGGNTGAAPSVKGRFAISRDNAKNTVYLQMNSLKPEDTAVYYCAAASAYYSNDPARYTYWGQGTQVTVSS
B11: anti-PfCSS nanobody F7 (VHH)
VHH: QVQLQESGGGSVQVGDSLSLSCVASGRTFSTYALGWFRQAPGKEREFVAAASANGKVAPVTGSLRDRFSISRDNAKNTMYLQMNNLKPEDTAVYYCAAATGSEVFISTSPNVYDIWGQGTQVTVSS
B12: anti-PfCSS nanobody D1 (VHH)
VHH: QVQLQESGGGLVQAGGSLRLSCAASGRTFSSLAMGWFRQPPGKEREFVAAISYSSGSTYYADSVKGRFTISRDNAKNTVYLQMNSLKPEDTAVYYCAVTPPDTYISTMGHEYDYWGQGTQVTVSS
B13: anti-PfCSS nanobody B1 (VHH)
VHH: QVQLQESGGGLVQYGGSLRLSCAASGRTFSSYSMGWFRQAPGKEREFVAAISWTGGNTYYLGSTEGRFTISRDNAKNTVFLQMNNLKPEDTAVYYCAAKGRGSSWPTYDYRGQGTQVTVSS
B14: anti-PfCSS nanobody C9 (VHH)
VHH: QVQLQESGGGLVQAGDSLRLSCAASGRTFSSYAMGWFRQAPGKEREFVAAIAWNGGSTYYQDSVKGRFTISRDNAKNTVYLQMNSLKPEDTAVYYCAADDSYMSTMIHEYDYWGQGTQVTVSS
B15: D2 nanobody (anti-PfCSS, inhibitory) (VHH)
VHH: QVQLQESGGGLVQAGGSLRLSCAASGRTFSSYAMGWFRQAPGKEREFVAAISYSGSNTYDADSVKGRFAISRDNAKNTVYLQMNSLKPEDTAVYYCAAAGVYSGTYTDTEFDYWGQGTQVTVSS
B16: anti-PfCSS nanobody D9 (VHH)
VHH: QVQLQESGGGLVQAGGSLTLSCAASGRTFSRSAMGWFRQAPGKGREFVAAISSGDTSTYYMDSVKGRFTISRDSSKNTVYLQMNNLRPEDTAVYYCAADPKSYITTMISEYDIWGQGTQVTVSS

Experiment in all cases: BLI
(Biolayer interferometry detects binding as a change in optical thickness at a sensor tip.)

In assay [1] the target is T2, PfPTRAMP (residues 42 to 309), PMX cleaved ectodomain (P. falciparum, UniProt Q8I5M8).
Assay [2] concerns the target T1, PTRAMP–CSS heterodimer ….
The target of assay [3] is B4.
Assay [4] has as its target T2, PfPTRAMP (residues 42 to 309), PMX …. The source holds these as a separate data set.

For B1, the Kd was found to be 530 nM in assay [1] and 390 nM in assay [2].
Turning to B2, the Kd in assay [3] was found to be 0.99 nM; in assay [2], 6.8 nM.
As for B3, in assay [3], binding was characterised by a dissociation constant (Kd) of 0.88 nM.
In assay [4], B4 gave a Kd of 19000 nM.
On to B5, for which the Kd in assay [3] was determined as 4.9 nM; in assay [2], 7 nM.
The like results for B6 were, in that order, 3.5 nM and 9.9 nM.
The like results for B7 were, in that order, 1.5 nM and 12 nM.
For the molecule B8, the Kd in assay [1] came out at 400 nM; in assay [2] it was 410 nM.
As to B9, the Kd in assay [3] was found to be 0.66 nM; in assay [2], 2.5 nM.
The corresponding values for B10 are 12 nM and 16 nM.
The like results for B11 were, in that order, 5 nM and 9.9 nM.
As for B12, the Kd in assay [3] turned out to be 2.6 nM; in assay [2], 9 nM.
The corresponding values for B13 are 4 nM and 5.6 nM.
The corresponding values for B14 are 6.5 nM and 12 nM.
Regarding B15, the Kd in assay [3] came out at 4.4 nM.
On to B16, for which the figures for the Kd in assay [3] and in assay [2] were 4.4 nM and 11 nM, respectively.

Usually Kd stands for a measure of binding affinity in units of concentration. A higher Kd goes with lower affinity.

The values above are taken from PMC9712106 (2022).
